# Laboratory results as given in the supplement of paper PMC6379048.
# Tests used:
# Experiment in all cases: Kd (EC50 corrected by depletion factor)
# CDKN2AIP = target: T1, CDKN2AIP (UniProt Q9NXV6)
# T1 sequence: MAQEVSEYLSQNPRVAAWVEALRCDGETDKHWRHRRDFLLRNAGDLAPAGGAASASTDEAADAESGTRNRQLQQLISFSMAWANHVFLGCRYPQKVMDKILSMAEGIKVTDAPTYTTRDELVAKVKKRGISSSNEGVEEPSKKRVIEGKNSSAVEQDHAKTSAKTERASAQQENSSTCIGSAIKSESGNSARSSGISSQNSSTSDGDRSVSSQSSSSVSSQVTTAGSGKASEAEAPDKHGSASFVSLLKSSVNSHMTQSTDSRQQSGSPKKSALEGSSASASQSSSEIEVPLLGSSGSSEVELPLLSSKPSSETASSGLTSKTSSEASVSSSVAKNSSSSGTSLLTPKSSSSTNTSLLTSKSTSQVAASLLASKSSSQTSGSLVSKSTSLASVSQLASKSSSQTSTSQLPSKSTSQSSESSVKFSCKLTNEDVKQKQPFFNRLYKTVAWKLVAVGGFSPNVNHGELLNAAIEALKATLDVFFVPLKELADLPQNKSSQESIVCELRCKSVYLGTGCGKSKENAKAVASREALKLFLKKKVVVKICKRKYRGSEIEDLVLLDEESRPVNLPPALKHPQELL
# How it was run: (§1)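 Free RNA oligos (0 nM to 30 μM) competed for 1 h at 4°C in HEK293-FT lysate (2.5 mg protein/well) before a 30 min, 4°C pulldown with the same oligos on NHS-Sepharose beads. Bound proteins were quantified by label-free LC-MS/MS and normalised to the control. Kd was found by multiplying EC50, from a four-parameter log-logistic fit, by a protein-dependent depletion factor.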
# CSTF3 = target: T2, CSTF3 (UniProt Q12996)
# T2 sequence: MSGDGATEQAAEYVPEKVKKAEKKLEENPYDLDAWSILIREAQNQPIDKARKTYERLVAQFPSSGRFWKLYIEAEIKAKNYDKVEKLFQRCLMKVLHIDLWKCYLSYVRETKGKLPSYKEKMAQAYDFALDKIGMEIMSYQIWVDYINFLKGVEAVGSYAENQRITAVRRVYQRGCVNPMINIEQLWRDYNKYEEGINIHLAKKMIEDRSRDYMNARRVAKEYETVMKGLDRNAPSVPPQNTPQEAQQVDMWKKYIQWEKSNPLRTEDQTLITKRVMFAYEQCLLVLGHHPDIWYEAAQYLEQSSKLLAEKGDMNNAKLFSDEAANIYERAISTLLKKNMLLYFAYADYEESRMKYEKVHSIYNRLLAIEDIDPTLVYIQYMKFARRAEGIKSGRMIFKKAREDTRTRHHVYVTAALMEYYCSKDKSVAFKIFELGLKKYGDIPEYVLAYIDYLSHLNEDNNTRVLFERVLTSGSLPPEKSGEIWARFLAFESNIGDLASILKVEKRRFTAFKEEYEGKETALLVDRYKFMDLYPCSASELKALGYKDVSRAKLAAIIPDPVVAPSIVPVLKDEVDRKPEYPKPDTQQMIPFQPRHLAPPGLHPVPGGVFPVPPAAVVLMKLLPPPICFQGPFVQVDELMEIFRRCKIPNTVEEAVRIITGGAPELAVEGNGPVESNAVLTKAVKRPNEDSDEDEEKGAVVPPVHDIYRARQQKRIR
# How it was run: as §1
# MRPS18B = MRPS18B (UniProt Q9Y676)
# How it was run: as §1
# MRPS25 = MRPS25 (UniProt P82663)
# How it was run: as §1
# TOE1 = TOE1 (UniProt Q96GM8)
# How it was run: as §1
# TTC37 = TTC37 (UniProt Q6PGP7)
# Sequence of TTC37 (Q6PGP7 whole entry): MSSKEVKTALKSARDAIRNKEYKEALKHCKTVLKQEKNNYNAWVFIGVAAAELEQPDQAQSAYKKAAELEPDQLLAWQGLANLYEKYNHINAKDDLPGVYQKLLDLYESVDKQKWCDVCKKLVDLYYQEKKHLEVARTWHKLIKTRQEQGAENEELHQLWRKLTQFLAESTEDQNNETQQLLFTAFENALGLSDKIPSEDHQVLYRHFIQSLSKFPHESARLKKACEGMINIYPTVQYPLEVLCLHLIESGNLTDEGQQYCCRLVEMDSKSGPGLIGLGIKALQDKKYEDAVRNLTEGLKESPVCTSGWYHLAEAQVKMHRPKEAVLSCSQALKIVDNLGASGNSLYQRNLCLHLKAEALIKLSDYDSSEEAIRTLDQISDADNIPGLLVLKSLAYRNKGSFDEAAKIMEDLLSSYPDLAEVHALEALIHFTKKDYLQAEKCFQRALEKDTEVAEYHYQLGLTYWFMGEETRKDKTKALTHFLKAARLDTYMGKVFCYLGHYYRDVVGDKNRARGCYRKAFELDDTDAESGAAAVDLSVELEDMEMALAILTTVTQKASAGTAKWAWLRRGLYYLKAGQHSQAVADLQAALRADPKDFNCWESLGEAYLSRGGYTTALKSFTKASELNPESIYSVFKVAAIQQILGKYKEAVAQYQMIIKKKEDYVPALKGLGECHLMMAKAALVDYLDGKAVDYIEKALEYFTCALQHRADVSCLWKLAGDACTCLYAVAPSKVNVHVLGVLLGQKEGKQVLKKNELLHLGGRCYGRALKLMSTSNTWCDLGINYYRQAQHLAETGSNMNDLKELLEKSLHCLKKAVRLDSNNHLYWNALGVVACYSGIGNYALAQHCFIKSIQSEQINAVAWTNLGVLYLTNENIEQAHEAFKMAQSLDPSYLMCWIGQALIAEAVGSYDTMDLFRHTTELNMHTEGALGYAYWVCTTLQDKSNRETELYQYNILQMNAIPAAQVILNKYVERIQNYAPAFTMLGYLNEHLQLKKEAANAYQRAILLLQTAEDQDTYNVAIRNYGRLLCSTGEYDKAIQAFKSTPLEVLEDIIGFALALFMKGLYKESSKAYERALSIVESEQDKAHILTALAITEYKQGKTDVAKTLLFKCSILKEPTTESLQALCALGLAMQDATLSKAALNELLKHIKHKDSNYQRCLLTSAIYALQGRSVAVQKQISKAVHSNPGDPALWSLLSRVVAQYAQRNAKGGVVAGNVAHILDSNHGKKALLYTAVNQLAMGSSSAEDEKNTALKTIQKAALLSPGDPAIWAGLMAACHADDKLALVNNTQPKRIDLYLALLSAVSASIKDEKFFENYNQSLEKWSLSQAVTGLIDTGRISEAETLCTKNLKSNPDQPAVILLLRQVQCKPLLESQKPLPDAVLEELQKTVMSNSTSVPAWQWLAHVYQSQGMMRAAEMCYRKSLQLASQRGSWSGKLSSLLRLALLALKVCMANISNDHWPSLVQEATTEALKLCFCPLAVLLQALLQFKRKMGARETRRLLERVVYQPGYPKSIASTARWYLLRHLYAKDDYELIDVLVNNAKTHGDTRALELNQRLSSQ
# How it was run: as §1
# RPS18 = RPS18 (UniProt P62269)
# How it was run: as §1
# RPS19 = RPS19 (UniProt P39019)
# How it was run: as §1
# CPSF7 = target: T3, CPSF7 (UniProt Q8N684)
# T3 sequence: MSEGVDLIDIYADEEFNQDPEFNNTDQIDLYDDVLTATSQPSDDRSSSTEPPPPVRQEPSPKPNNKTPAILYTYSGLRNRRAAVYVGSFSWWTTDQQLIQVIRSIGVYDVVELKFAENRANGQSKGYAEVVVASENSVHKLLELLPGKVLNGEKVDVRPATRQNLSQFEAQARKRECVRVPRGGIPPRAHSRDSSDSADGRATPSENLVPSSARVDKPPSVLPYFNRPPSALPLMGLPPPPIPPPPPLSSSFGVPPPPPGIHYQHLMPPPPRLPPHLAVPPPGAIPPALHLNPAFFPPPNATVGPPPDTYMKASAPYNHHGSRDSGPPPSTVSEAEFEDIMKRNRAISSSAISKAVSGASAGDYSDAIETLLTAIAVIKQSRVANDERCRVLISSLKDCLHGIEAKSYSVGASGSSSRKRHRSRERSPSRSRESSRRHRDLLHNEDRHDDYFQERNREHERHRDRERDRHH
# How it was run: as §1
# HMGB2 = target: T4, HMGB2 (UniProt P26583)
# T4 sequence: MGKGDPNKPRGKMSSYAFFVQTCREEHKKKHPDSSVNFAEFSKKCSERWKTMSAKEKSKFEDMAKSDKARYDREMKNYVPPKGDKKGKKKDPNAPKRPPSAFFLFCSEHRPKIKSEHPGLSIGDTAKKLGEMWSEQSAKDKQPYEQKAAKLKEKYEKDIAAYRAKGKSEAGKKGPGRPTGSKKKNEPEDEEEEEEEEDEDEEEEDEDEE
# How it was run: as §1
# P4HB = P4HB (UniProt P07237)
# Sequence of P4HB (P07237 whole entry, looked up): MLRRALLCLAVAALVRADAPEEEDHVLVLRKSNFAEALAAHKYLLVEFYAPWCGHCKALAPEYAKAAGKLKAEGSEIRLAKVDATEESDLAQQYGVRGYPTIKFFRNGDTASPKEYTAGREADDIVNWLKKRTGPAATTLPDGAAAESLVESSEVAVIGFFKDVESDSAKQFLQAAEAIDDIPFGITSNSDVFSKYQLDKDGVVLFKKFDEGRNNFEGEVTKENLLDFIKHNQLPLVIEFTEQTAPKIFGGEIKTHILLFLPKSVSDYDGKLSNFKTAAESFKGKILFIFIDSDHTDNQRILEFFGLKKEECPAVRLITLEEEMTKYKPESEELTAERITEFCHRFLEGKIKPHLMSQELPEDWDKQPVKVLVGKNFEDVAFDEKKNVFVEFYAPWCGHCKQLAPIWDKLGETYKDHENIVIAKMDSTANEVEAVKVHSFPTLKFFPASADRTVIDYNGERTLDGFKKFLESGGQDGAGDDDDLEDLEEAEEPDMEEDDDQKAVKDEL
# How it was run: as §1
sequence,measurement,setting,value
UAUUUAU,Kd,CDKN2AIP,368 nM
same,Kd,CSTF3,352 nM
same,Kd,MRPS18B,52.9 nM
same,Kd,MRPS25,12.4 nM
same,Kd,TOE1,1020 nM
same,Kd,TTC37,577 nM
CUGUCCU,Kd,RPS18,42.6 nM
same,Kd,RPS19,69.9 nM
AAUAAA,Kd,CPSF7,2100 nM
same,Kd,HMGB2,2.05 nM
same,Kd,P4HB,24.8 nM
